The values below come from patent publication US20090285771A1.

The test deals with growth hormone (GH) receptor (mouse) (UniProt P16882). As to the kind of experiment: cell-based or functional assay.

In the case of “recombinant rat growth hormone (from UniProt P01244 27-216) (ligand)”, the GH receptor mRNA expression levels in the liver (quantitative RT-PCR, normalized to GAPDH, % of control), 60 minutes after 30 µg subcutaneous rGH in BALB/c mice (% of level prior to administration) was 65 and the IGF-1-BP3 mRNA expression levels in the liver (quantitative RT-PCR, normalized to GAPDH, % of control), 60 minutes after 30 µg subcutaneous rGH in BALB/c mice was found to be 250 % increase.
